{"source": "patent US20160166666A1", "about": "“TUMOR ANTIGEN PEPTIDE” (Sumitomo Dainippon Pharma Co., Ltd., priority 2013, published 2016)", "binders": {"B1": {"name": "Peptide represented by SEQ ID No: 11, OR7C1 V126I (117-126) (peptide)", "peptide": "VMAYDRFVAI", "notes": "Synthetic peptide, Fmoc method"}}, "key": {"HLA-A*02:01 on T2 cells": {"target": "T1, HLA-A*02:01 on T2 cells (human, UniProt P04439 25-302 at identity 0.94))", "T1 construct": "whole, on cells; Empty MHC class I on the cell surface that is stabilized by an added peptide; the text gives HLA-A*02:01", "T1 MHC heavy": "not shown", "assay": "MHC class I expression stabilization test on T2 cells as in Example 2, flow cytometry"}, "[1]": {"target": "T2, HLA-A*24:02 on T2-A24 cells (human, UniProt P04439-2 25-302 at identity 0.92))", "T2 construct": "whole, on cells; Empty MHC class I on the cell surface that is stabilized by an added peptide; the text gives HLA-A*24:02", "T2 MHC heavy": "not shown", "assay": "MHC class I expression stabilization test on T2-A24 cells as in Example 2, flow cytometry"}}}
{"binder": "B1", "values": [{"measurement": "mean fluorescence intensity (MFI) solvent ratio", "setting": "HLA-A*02:01 on T2 cells", "result": "2.2 ratio to solvent"}, {"measurement": "mean fluorescence intensity (MFI) solvent ratio", "setting": "[1]", "result": "3.8 ratio to solvent"}]}
